PMC5802732, “A chiral selectivity relaxed paralog of DTD for proofreading tRNA mischarging in Animalia” (Nature Communications, 2018)

Molecular target: the molecule itself
Experiment: crystal structure; un-tagged MmATD alone; sitting-drop vapor diffusion, reservoir 0.1 M Bicine (pH 8.0) and 15% PEG1500; 1.86 Å; two monomers per asymmetric unit

B1: Animalia-specific tRNA deacylase from Mus musculus (enzyme)
chain: MADGGRVAQARALLQQCLHARLQVRPADGDAAAQWVEIRRGLVIYVCFFKGADTDLLPKMVNTLLNVKLSETETGKHVSILDLPGDVLIIPQATLGGRVKGRSMQYHSNSGKEEGSELYSQFVSLCEKAVANNTKSVEAGVAVAHGTYGNRQVLKLDTNGPYTHLIEF
notes: ATD (Animalia-specific tRNA deacylase, annotated in databases as probable DTD2) from Mus musculus; un-tagged protein used for crystallisation; gene PCR-amplified from cDNA into pET-28b; Homodimer in the crystal (two monomers per asymmetric unit, 325 residues modelled); also called MmATD; ATD; source: E. coli Rosetta(DE3), purified (cation exchange chromatography, SEC)
binding result: binds
